T1: human CX3CR1 (human, UniProt P49238 1-355)
T1 construct: Overexpressed on CHO K1, Ba/F3 or HEK293T cells; also called huCX3CR1; hCX3CR1
T1 sequence: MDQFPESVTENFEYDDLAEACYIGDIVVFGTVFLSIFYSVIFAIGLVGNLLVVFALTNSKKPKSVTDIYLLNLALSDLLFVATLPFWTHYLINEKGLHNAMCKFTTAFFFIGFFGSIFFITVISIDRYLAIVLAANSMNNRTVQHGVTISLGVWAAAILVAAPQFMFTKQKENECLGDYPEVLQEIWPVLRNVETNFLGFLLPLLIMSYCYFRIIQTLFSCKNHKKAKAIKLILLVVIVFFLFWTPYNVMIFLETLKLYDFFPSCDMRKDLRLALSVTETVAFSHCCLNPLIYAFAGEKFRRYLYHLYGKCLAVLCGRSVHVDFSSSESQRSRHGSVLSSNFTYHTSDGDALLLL

T2: human CX3CR1 V249I/T280M (human, UniProt P49238 1-355)
T2 construct: Transiently transfected in HEK293T cells (pcDNA3.1); also called huCX3CR1 variant V249I and T280M
T2 chain: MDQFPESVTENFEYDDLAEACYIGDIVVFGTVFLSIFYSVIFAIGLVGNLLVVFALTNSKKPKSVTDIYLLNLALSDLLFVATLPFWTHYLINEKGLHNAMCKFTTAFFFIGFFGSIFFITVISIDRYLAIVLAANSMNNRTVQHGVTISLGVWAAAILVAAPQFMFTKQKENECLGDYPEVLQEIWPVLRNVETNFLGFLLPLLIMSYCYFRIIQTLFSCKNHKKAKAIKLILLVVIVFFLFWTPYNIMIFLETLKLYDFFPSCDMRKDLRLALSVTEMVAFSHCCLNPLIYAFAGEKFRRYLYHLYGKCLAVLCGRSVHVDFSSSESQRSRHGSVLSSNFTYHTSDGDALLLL


Experiments:
human CX3CR1 [1] = target: T1, human CX3CR1; assay: flow cytometry on transiently transfected HEK293T cells, human CX3CR1 WT
Method: (§1) After washing, serial dilutions of multivalent ISVD construct (starting from 250 nM, 3-fold dilution, 11 points, diluted in assay buffer), were added and incubated for 4 hours at 4° C. Binding was performed in the presence of 30 uM HSA (Sigma-Aldrich, Cat. No. A8763). Plates were then washed 3 times and cells were incubated with an anti-VHH mouse antibody (3300-fold diluted in assay buffer) for 30 minutes at 4′° C. […] Plates were finally washed 3 times and cells were resuspended in PI (Miltenyi Biotec, Cat. No. 130-093-233, 1000-fold diluted in assay buffer). Cell suspensions were analyzed with iQue Screener PLUS (Intellicyt). EC50s were estimated by dose response modelling. Curves were fit using 4 parameter logistic regression in GraphPad (GraphPad Software Inc.). A purified anti-human CX3CR1 antibody [K0124E1] (BioLegend, Cat. No. 355701/355702) was used as positive control to detect CX3CR1 expression on the cell surface.
(§2) Two important SNPs are described in huCX3CR1, i.e. V2491 (Rs3732379) and T280M (Rs3732378), which might influence receptor activity and binding by the ISVD. […] Different combinations of these SNPs were introduced in human CX3CR1, and binding by 5 selected multivalent ISVD constructs was assessed with flow cytometry after transient transfection of the huCX3CR1 variants in HEK293T cells.
In short, the CX3CR1 constructs were cloned into pcDNA3.1 (ThermoFisher Scientific, Cat. No. V79020) and plasmid DNA was prepared from Escherichia coli TOP10 cells. HEK293T cells were seeded at a concentration of 1.5E06 cells per T75 flask and incubated overnight at 37° C. in DMEM medium (Gibco, Cat. No. 31966) supplemented with 10% FBS (Sigma. Cat. No. F7524). The medium was then replaced by Opti-MEM medium (Gibco, Cat. No. 31985). A mixture of 9 μg plasmid DNA, 27 μL Fugene 6 (Promega, Cat. No. E2691) in a final volume of 1 mL Opti-MEM was incubated for 15 minutes at room temperature and then added to the cells. After 3 hours incubation at 37° C., 10 mL of DMEM supplemented with 20% FBS was added, and incubation continued.

human CX3CR1 [2] = target: T1, human CX3CR1; assay: MSD-SET in-solution affinity on cell expressed human CX3CR1, 30 uM HSA, geometric mean of N = 3
Method: The affinity was determined on 3 independent assay occasions.

human CX3CR1 V249I/T280M = target: T2, human CX3CR1 V249I/T280M; assay: flow cytometry on HEK293T cells transiently transfected with human CX3CR1 V249I + T280M; detection with anti-VHH mouse antibody and goat anti-mouse Fc APC, as in Example 5.1
Method: as §1, with “Plates” for “After washing, serial dilutions of multivalent ISVD construct (starting from 250 nM, 3-fold dilution, 11 points, diluted in assay buffer), were added and incubated for 4 hours at 4° C. Binding was performed in the presence of 30 uM HSA (Sigma-Aldrich, Cat. No. A8763). Plates”
as §2
In short, the CX3CR1 constructs were cloned into pcDNA3.1 (ThermoFisher Scientific, Cat. No. V79020) and plasmid DNA was prepared from Escherichia coli TOP10 cells. […]

Row | Binder | EC50 (human CX3CR1 [1]) | Kd (human CX3CR1 [2]) | binding result (human CX3CR1 V249I/T280M)
1 | A041600035 (VHH, Trivalent ISVD construct (two anti-CX3CR1 ISVDs, one anti-albumin ISVD), C-terminal alanine included in the entry; also called 54A12_SO (E1D)-9GS-54A12_SO-9GS-ALB23002-A) DVQLVESGGGSVQPGGSLRLSCAASGSIFSSTAMAWYRQAPGKQRDLVAVISTVGITKYADSVKGRFTISRDNAKNTVYLQMNSLRPEDTALYYCTSDARRGWDTRYWGQGTLVTVSSGGGGSGGGSEVQLVESGGGSVQPGGSLRLSCAASGSIFSSTAMAWYRQAPGKQRDLVAVISTVGITKYADSVKGRFTISRDNAKNTVYLQMNSLRPEDTALYYCTSDARRGWDTRYWGQGTLVTVSSGGGGSGGGSEVQLVESGGGVVQPGGSLRLSCAASGFTFRSFGMSWVRQAPGKGPEWVSSISGSGSDTLYADSVKGRFTISRDNSKNTLYLQMNSLRPEDTALYYCTIGGSLSRSSQGTLVTVSSA | 0.13 nM | 0.13 nM | 
2 | A041600025 (VHH, Trivalent ISVD construct (two anti-CX3CR1 ISVDs, one anti-albumin ISVD), C-terminal alanine included in the entry; also called 54A12_SO (E1D)-9GS-ALB23002-9GS-54A12_SO-A) DVQLVESGGGSVQPGGSLRLSCAASGSIFSSTAMAWYRQAPGKQRDLVAVISTVGITKYADSVKGRFTISRDNAKNTVYLQMNSLRPEDTALYYCTSDARRGWDTRYWGQGTLVTVSSGGGGSGGGSEVQLVESGGGVVQPGGSLRLSCAASGFTFRSFGMSWVRQAPGKGPEWVSSISGSGSDTLYADSVKGRFTISRDNSKNTLYLQMNSLRPEDTALYYCTIGGSLSRSSQGTLVTVSSGGGGSGGGSEVQLVESGGGSVQPGGSLRLSCAASGSIFSSTAMAWYRQAPGKQRDLVAVISTVGITKYADSVKGRFTISRDNAKNTVYLQMNSLRPEDTALYYCTSDARRGWDTRYWGQGTLVTVSSA | 0.065 nM |  | 
3 | A041600034 (VHH, Trivalent ISVD construct; also called 54A12_SO (E1D)-9GS-ALB23002-9GS-66B02_SO-A) DVQLVESGGGSVQPGGSLRLSCAASGSIFSSTAMAWYRQAPGKQRDLVAVISTVGITKYADSVKGRFTISRDNAKNTVYLQMNSLRPEDTALYYCTSDARRGWDTRYWGQGTLVTVSSGGGGSGGGSEVQLVESGGGVVQPGGSLRLSCAASGFTFRSFGMSWVRQAPGKGPEWVSSISGSGSDTLYADSVKGRFTISRDNSKNTLYLQMNSLRPEDTALYYCTIGGSLSRSSQGTLVTVSSGGGGSGGGSEVQLVESGGGSVQPGGSLRLSCAASGSIFSSTAMAWYRQAPGKRRDLVAAINTVGVTKYADSVKGRFTISRDNAKNTVYLQMNSLRPEDTALYYCTSDPRRGWDTRYWGQGTLVTVSSA | 0.1 nM |  | 

Further lines, results first:

Row | EC50 (human CX3CR1 [1]) | Kd (human CX3CR1 [2]) | binding result (human CX3CR1 V249I/T280M) | Binder
4 | 0.16 nM |  | binds | A041600041 (VHH, Trivalent ISVD construct (two anti-CX3CR1 ISVDs, one anti-albumin ISVD), C-terminal alanine included in the entry; also called 54A12_SO (E1D)-9GS-66B02_SO-9GS-ALB23002-A) DVQLVESGGGSVQPGGSLRLSCAASGSIFSSTAMAWYRQAPGKQRDLVAVISTVGITKYADSVKGRFTISRDNAKNTVYLQMNSLRPEDTALYYCTSDARRGWDTRYWGQGTLVTVSSGGGGSGGGSEVQLVESGGGSVQPGGSLRLSCAASGSIFSSTAMAWYRQAPGKRRDLVAAINTVGVTKYADSVKGRFTISRDNAKNTVYLQMNSLRPEDTALYYCTSDPRRGWDTRYWGQGTLVTVSSGGGGSGGGSEVQLVESGGGVVQPGGSLRLSCAASGFTFRSFGMSWVRQAPGKGPEWVSSISGSGSDTLYADSVKGRFTISRDNSKNTLYLQMNSLRPEDTALYYCTIGGSLSRSSQGTLVTVSSA
5 | 0.12 nM |  | binds | A041600085 (VHH, also called 307-9GS-ALB23002-9GS-307 (D1E)-A) DVQLVESGGGLVQPGGSLRLSCAASGSIFSSTAMAWYRQAPGKRRDLVAAISTVGVTKYADSVKGRFTISRDNSKNTVYLQMNSLRPEDTAVYYCTSDPRRGWDTRYWGQGTLVTVSSGGGGSGGGSEVQLVESGGGVVQPGGSLRLSCAASGFTFRSFGMSWVRQAPGKGPEWVSSISGSGSDTLYADSVKGRFTISRDNSKNTLYLQMNSLRPEDTALYYCTIGGSLSRSSQGTLVTVSSGGGGSGGGSEVQLVESGGGLVQPGGSLRLSCAASGSIFSSTAMAWYRQAPGKRRDLVAAISTVGVTKYADSVKGRFTISRDNSKNTVYLQMNSLRPEDTAVYYCTSDPRRGWDTRYWGQGTLVTVSSA

— patent US20240117038A1 (Ablynx, published 2024)
